# Test results taken from patent US20250043017A1 (Regeneron, published 2025).
# B1: REGN6189 (bispecific antibody, human IgG4 S228P, kappa)
# heavy 1: EVQLVESGGGLVQPGRSLRLSCAASGFTFDDYALHWVRQAPGKGLEWVSGISWTGGTIDYADSVKGRFTISRDNAKNSLYLQMSSLRTEDTAIYYCTRDIRGNWKYGGWFDPWGQGTLVTVSSASTKGPSVFPLAPCSRSTSESTAALGCLVKDYFPEPVTVSWNSGALTSGVHTFPAVLQSSGLYSLSSVVTVPSSSLGTKTYTCNVDHKPSNTKVDKRVESKYGPPCPPCPAPPVAGPSVFLFPPKPKDTLMISRTPEVTCVVVDVSQEDPEVQFNWYVDGVEVHNAKTKPREEQFNSTYRVVSVLTVLHQDWLNGKEYKCKVSNKGLPSSIEKTISKAKGQPREPQVYTLPPSQEEMTKNQVSLTCLVKGFYPSDIAVEWESNGQPENNYKTTPPVLDSDGSFFLYSRLTVDKSRWQEGNVFSCSVMHEALHNHYTQKSLSLSLGK
# heavy 2: QVQLVESGGDVVQPGRSLRLSCTASGFTFSSFGMHWVRQAPGKGLEWVTFLSYDGSYKYYADSVKGRFTISRDNSKNTLYLQMNSLRAEDTAIFYCARDWLDYWGQGTLVTVSSASTKGPSVFPLAPCSRSTSESTAALGCLVKDYFPEPVTVSWNSGALTSGVHTFPAVLQSSGLYSLSSVVTVPSSSLGTKTYTCNVDHKPSNTKVDKRVESKYGPPCPPCPAPPVAGPSVFLFPPKPKDTLMISRTPEVTCVVVDVSQEDPEVQFNWYVDGVEVHNAKTKPREEQFNSTYRVVSVLTVLHQDWLNGKEYKCKVSNKGLPSSIEKTISKAKGQPREPQVYTLPPSQEEMTKNQVSLTCLVKGFYPSDIAVEWESNGQPENNYKTTPPVLDSDGSFFLYSRLTVDKSRWQEGNVFSCSVMHEALHNRFTQKSLSLSPGK
# light: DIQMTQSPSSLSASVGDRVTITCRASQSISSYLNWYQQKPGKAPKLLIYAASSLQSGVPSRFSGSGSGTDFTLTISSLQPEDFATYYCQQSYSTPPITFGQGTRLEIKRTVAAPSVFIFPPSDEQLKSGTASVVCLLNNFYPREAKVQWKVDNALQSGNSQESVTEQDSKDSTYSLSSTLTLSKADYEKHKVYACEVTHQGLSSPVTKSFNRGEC
# notes: common light chain 1-39; also called R6189; PD-L1x4-1BB REGN6189
# B2: REGN6190 (bispecific antibody, human IgG4 S228P, kappa)
# heavy 1: EVQLVESGGGLVQPGRSLRLSCAASGFTFDDYALHWVRQAPGKGLEWVSGISWTGGTIDYADSVKGRFTISRDNAKNSLYLQMSSLRTEDTAIYYCTRDIRGNWKYGGWFDPWGQGTLVTVSSASTKGPSVFPLAPCSRSTSESTAALGCLVKDYFPEPVTVSWNSGALTSGVHTFPAVLQSSGLYSLSSVVTVPSSSLGTKTYTCNVDHKPSNTKVDKRVESKYGPPCPPCPAPPVAGPSVFLFPPKPKDTLMISRTPEVTCVVVDVSQEDPEVQFNWYVDGVEVHNAKTKPREEQFNSTYRVVSVLTVLHQDWLNGKEYKCKVSNKGLPSSIEKTISKAKGQPREPQVYTLPPSQEEMTKNQVSLTCLVKGFYPSDIAVEWESNGQPENNYKTTPPVLDSDGSFFLYSRLTVDKSRWQEGNVFSCSVMHEALHNHYTQKSLSLSLGK
# heavy 2: EVQLVESGGGLVQPGGSLRLSCEASGFTFSSYEMNWVRQAPGKGLEWISHISSSGSSIYYADSVQGRFTISRDKAKNSLYLQMNSLRAEDTAVYYCTREGFEYGSSSGLKYYYYGLDVWGQGTTVTVSSASTKGPSVFPLAPCSRSTSESTAALGCLVKDYFPEPVTVSWNSGALTSGVHTFPAVLQSSGLYSLSSVVTVPSSSLGTKTYTCNVDHKPSNTKVDKRVESKYGPPCPPCPAPPVAGPSVFLFPPKPKDTLMISRTPEVTCVVVDVSQEDPEVQFNWYVDGVEVHNAKTKPREEQFNSTYRVVSVLTVLHQDWLNGKEYKCKVSNKGLPSSIEKTISKAKGQPREPQVYTLPPSQEEMTKNQVSLTCLVKGFYPSDIAVEWESNGQPENNYKTTPPVLDSDGSFFLYSRLTVDKSRWQEGNVFSCSVMHEALHNRFTQKSLSLSPGK
# light: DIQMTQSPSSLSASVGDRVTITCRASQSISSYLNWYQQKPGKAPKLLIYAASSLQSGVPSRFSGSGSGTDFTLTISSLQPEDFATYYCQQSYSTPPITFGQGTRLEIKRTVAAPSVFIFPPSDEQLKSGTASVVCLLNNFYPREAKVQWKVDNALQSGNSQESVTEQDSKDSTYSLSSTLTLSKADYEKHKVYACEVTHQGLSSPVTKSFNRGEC
# notes: common light chain 1-39; also called R6190; PD-L1x4-1BB REGN6190
# Columns and labels:
# [1] = target: T1, human 4-1BB expressed with a C-terminal myc-myc-hexahistidine tag (h4-1BB.mmH) (human); test: blocking ELISA, 0.25 nM h4-1BB-mmh binding to coated 6His-Flag-h4-1BBL
# T1 construct: also called hCD137 (4-1BB) mmH
# T1 sequence (chain, as listed by the source limits assumed): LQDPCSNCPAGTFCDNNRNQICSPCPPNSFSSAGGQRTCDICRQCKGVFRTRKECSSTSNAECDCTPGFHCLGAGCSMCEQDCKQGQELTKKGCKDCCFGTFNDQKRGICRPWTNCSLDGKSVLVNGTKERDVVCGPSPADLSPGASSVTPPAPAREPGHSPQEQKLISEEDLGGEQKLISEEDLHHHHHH
# Procedure: The 4-1BB blocking assay was performed similarly to the PD-L1 blocking assay. 6His-Flag-h4-1BBL protein ([…] in PBS) was coated onto a 96-well microtiter plate overnight at 4 °C. […] The plates were developed using TMB substrate solution (BD Biosciences) and the absorbance at 450 nm was measured on a SpectraMax I3x plate reader.
# Binding data were analyzed using a sigmoidal (four-parameter logistic) dose-response model with GraphPad Prism™ software. […] The percent blocking of tested antibodies at the highest tested concentration of 100 nM was calculated based on the formula shown below: […]
# [2] = target: T1, human 4-1BB expressed with a C-terminal …; test: SPR Biacore, 25 C, antibody captured via anti-hFc, h4-1BB.mmH as analyte
# Procedure: The CM5 Biacore sensor surface was derivatized by amine coupling with a monoclonal mouse anti-human Fc antibody. All Biacore binding studies were performed in a buffer composed of 0.01M HEPES pH 7.4, 0.15M NaCl, 3 mM EDTA, 0.05% v/v Surfactant P20 (HBS-EP running buffer). […] Antibody-reagent association was monitored for 5 minutes while dissociation in HBS-EP running buffer was monitored for 10 minutes. At the end of each cycle, the antibody capture surface was regenerated using a 10 sec injection of 20 mM phosphoric acid. All binding kinetics experiments were performed at 25° C.
# Data analysis: The specific SPR-Biacore sensorgrams were obtained by a double referencing procedure. The double referencing was performed by first subtracting the signal of each injection over a reference surface (anti-hFc or anti-mFc) from the signal over the experimental surface (anti-hFc-captured anti-PD-L1×4-1BB antibodies) thereby removing contributions from refractive index changes. In addition, running buffer injections were performed to allow subtraction of the signal changes resulting from the dissociation of captured antibodies or antigens from the coupled anti-hFc or anti-mFc surface. Kinetic association (kₐ) and dissociation (kd) rate constants were determined by fitting the real-time sensorgrams to a 1:1 binding model using Scrubber v2.0c curve fitting software. Binding dissociation equilibrium constants (KD) and dissociative half-lives (t½) were calculated from the kinetic rate constants as: […]
# human 4-1BB on cells [3] = target: T2, human 4-1BB on cells (human, UniProt Q07011 24-255); test: cell-based or functional assay
# T2 sequence (Q07011 24-255): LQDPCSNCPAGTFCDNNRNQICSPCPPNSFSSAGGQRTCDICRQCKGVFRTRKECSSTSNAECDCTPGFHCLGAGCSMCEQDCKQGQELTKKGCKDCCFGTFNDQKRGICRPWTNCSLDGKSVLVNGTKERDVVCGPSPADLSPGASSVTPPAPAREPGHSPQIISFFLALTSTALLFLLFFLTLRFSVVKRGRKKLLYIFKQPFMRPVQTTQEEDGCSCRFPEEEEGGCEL
# human 4-1BB on cells [4] = target: T2, human 4-1BB on cells; test: cell-based or functional assay; remark: listed apart in the source
# human 4-1BB on cells [5] = target: T2, human 4-1BB on cells; test: flow cytometry, Jurkat/NFkB-Luc/h41BB cells
# Procedure: Binding was detected by using a labeled secondary antibody and measuring fluorescence on a flow cytometer.
# Assay set up: OVCAR-3+/−PD-L1 cells were lifted with trypsin, washed and resuspended in stain buffer (2% FBS in PBS). OVCAR-3 and Jurkat/NFkB-Luc/h41BB cells were counted and added to wells at 200,000 cells/well. Cells, in wells of 96-well round bottom plates, were pelleted by centrifugation and resuspended in 150 ul stain buffer (PBS containing 2% FBS). Plates were once again centrifuged and subsequently 100 ul of stain buffer alone or stain buffer containing antibody, titrated from 200 nM to 12 pM in a 9-point 1:4 dose titration were added to cells. Cells and antibodies were incubated for 30 min on ice and then washed in stain buffer. Cells were resuspended in 2 μg/ml allophycocyanin (APC) conjugated goat-anti human secondary antibody. A secondary antibody alone control was included. Cells and secondary were incubated for 30 min on ice and then washed in stain buffer. After a subsequent wash with PBS (containing no FBS), cells were resuspended in viability dye (reconstituted in DMSO according to the manufacturer's protocol and diluted 1:1000 in PBS) and incubated for 20 min on ice. They were then washed with stain buffer and resuspended in 2% PFA for 30 min at 4 C. After washing they were filtered and analyzed by flow cytometry. EC₅₀ values of the antibodies were determined from a 4 parameter logistic equation over a 9-point dose response curve (including secondary only control) using GraphPad Prism software.
binder,measurement,setting,value
B1,% Blocking at 100 nM mAb,[1],64%
same,270 nM h4-1BB-mmH Bind (RU),[2],25.4 RU
same,Kd,[2],61.6 nM
same,koff,[2],0.0315 s⁻¹
same,kon,[2],511000 M⁻¹ s⁻¹
same,t½,[2],24 s
same,"IL2 release EC50, human CD3+ T cells + HEK293/hCD20/hPSMA/hPD-L1 + CD20xCD3",human 4-1BB on cells [3],1.09 nM
same,"IL2 release MAX, human CD3+ T cells + HEK293/hCD20/hPSMA + CD20xCD3",human 4-1BB on cells [3],8.7 pg/mL
same,"IL2 release MAX, human CD3+ T cells + HEK293/hCD20/hPSMA, no CD20xCD3",human 4-1BB on cells [3],10.1 pg/mL
same,"IL2 release MAX, human CD3+ T cells + HEK293/hCD20/hPSMA/hPD-L1 + CD20xCD3",human 4-1BB on cells [3],83.1 pg/mL
same,"IL2 release MAX, human CD3+ T cells + HEK293/hCD20/hPSMA/hPD-L1, no CD20xCD3",human 4-1BB on cells [3],10.1 pg/mL
same,"NFkB-luciferase EC50, Jurkat/NFkB-Luc/h41BB + HEK293/hCD20/hPSMA/hPD-L1",human 4-1BB on cells [4],7.03 nM
same,"NFkB-luciferase MAX (RLU), Jurkat/NFkB-Luc/h41BB + HEK293/hCD20/hPSMA",human 4-1BB on cells [4],175000 RLU
same,"NFkB-luciferase MAX (RLU), Jurkat/NFkB-Luc/h41BB + HEK293/hCD20/hPSMA/hPD-L1",human 4-1BB on cells [4],1.18e+06 RLU
same,Fold change (max MFI over secondary antibody alone),human 4-1BB on cells [5],23.8 fold
same,Max [gMFI],human 4-1BB on cells [5],54000 gMFI
B2,% Blocking at 100 nM mAb,[1],85%
same,270 nM h4-1BB-mmH Bind (RU),[2],30.7 RU
same,Kd,[2],30.3 nM
same,koff,[2],0.021 s⁻¹
same,kon,[2],692000 M⁻¹ s⁻¹
same,t½,[2],30 s
same,"IL2 release EC50, human CD3+ T cells + HEK293/hCD20/hPSMA/hPD-L1 + CD20xCD3",human 4-1BB on cells [3],0.663 nM
same,"IL2 release MAX, human CD3+ T cells + HEK293/hCD20/hPSMA + CD20xCD3",human 4-1BB on cells [3],9.6 pg/mL
same,"IL2 release MAX, human CD3+ T cells + HEK293/hCD20/hPSMA, no CD20xCD3",human 4-1BB on cells [3],8.9 pg/mL
same,"IL2 release MAX, human CD3+ T cells + HEK293/hCD20/hPSMA/hPD-L1 + CD20xCD3",human 4-1BB on cells [3],52.5 pg/mL
same,"IL2 release MAX, human CD3+ T cells + HEK293/hCD20/hPSMA/hPD-L1, no CD20xCD3",human 4-1BB on cells [3],8.9 pg/mL
same,"NFkB-luciferase EC50, Jurkat/NFkB-Luc/h41BB + HEK293/hCD20/hPSMA/hPD-L1",human 4-1BB on cells [4],4.48 nM
same,"NFkB-luciferase MAX (RLU), Jurkat/NFkB-Luc/h41BB + HEK293/hCD20/hPSMA",human 4-1BB on cells [4],120000 RLU
same,"NFkB-luciferase MAX (RLU), Jurkat/NFkB-Luc/h41BB + HEK293/hCD20/hPSMA/hPD-L1",human 4-1BB on cells [4],973000 RLU
same,Fold change (max MFI over secondary antibody alone),human 4-1BB on cells [5],36.2 fold
same,Max [gMFI],human 4-1BB on cells [5],82000 gMFI
